Reference: patent publication US20080044407A1

Target: HPV 16 E786-93 epitope […] (X aminobutyric acid) presented by HLA-A2.1 (human papilloma virus (HPV) 16; human)

Substance: freshly isolated HLA-A2 positive CD8+ (CTLs) and CD4+ (HTLs) T cells (cells without a defined receptor)
- IFN γ Elispot, frequency of spots (250,000 cells per well): 0.02%
